This is an account of results in article PMC7532196.

Holding throughout (experiment): EMSA
Holding throughout (conditions): EMSA: 30 ng probe in 20 ul, 10 mM Tris-HCl pH 7.4, 50 mM KCl, 5 mM MgCl2, 10% glycerol, room temperature 30 min, 6% PAGE

Data set [1] addresses T1, PcaQ (Pseudomonas savastanoi pv. phaseolicola 1448A (P. syringae)) (UniProt Q48JW3).
T1 sequence: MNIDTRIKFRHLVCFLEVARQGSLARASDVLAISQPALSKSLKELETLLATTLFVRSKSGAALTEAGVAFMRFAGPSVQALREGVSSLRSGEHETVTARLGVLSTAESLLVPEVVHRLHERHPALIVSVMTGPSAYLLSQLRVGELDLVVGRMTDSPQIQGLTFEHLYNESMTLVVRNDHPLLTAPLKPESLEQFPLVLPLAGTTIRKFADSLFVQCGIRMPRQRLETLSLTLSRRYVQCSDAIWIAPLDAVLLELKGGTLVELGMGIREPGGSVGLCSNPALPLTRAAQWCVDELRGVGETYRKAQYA

For data set [2], the target named is T2, MetR (Pseudomonas savastanoi pv. phaseolicola 1448A (P. syringae)) (UniProt Q48EZ0).
T2 sequence: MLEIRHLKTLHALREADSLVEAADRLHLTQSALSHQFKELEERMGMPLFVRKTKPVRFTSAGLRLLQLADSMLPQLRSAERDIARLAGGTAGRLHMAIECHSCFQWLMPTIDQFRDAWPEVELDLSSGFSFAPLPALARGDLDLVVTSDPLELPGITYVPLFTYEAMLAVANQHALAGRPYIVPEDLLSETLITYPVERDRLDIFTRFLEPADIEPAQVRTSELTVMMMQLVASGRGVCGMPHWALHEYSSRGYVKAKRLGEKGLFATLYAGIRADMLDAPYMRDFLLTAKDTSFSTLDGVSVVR

In data set [3] the target is T3, PSPPH_3297 (Pseudomonas savastanoi pv. phaseolicola 1448A (P. syringae)) (UniProt Q48GM7).
T3 sequence: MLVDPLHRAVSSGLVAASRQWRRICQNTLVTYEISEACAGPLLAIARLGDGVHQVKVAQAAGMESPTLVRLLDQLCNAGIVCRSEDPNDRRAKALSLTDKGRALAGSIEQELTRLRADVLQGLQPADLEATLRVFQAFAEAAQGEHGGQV

Regarding “GTACCTGCCAGAATGTTGAGGGTGATATTGATCCATAACCTTAGCCTCCTACGCCTCTTTAGCTGGACAGCAAAAATTACCGAATTAGCTAAACATTAGGAATAATTCTAGCATTAGCTGTTCAGCTAACAAAGGCCTAAAAG (double strand) [PSPPH_0985 promoter]”, in data set [1], the binding entry is “binds”.
For “TCAAGAATTACAGTTGTGCCTTGCGTCATATGTGATCTGCTTATATGTATATGAAAAAAACTCATTATGAGTCAGTCTTGTATAACGTATTTAATACGGCCCTTTAATCAAACTACAAACACTTTTTTCAGGGGATTTCTGTGAA (double strand) [PSPPH_1024 promoter]”, in data set [2], the binding entry is recorded as “binds”.
With “ACAATTAGTTGAATAATTTCCTTGGATATGAGGAAGGCGGGCTACAGGTGAACGTATAAAAAATCATGGTTTTAGTTATGCATAACCATGAAAATAAAGGAATTTTTATTAAATGTTGGTATTAATCAAAGGCACGTTTAATCACGCCGTCTA (double strand) [katB promoter]”, in data set [1], the binding result is given as “binds”.
For the sequence “GATGGGTGTTCGGTGATGACTATATGACATCACGGAACCGACTTTAACAGATGAAAAAAATTCAATTACAGGCGAGGTACAGGTTGATCGGCCGCAGACGGCTACTTTTTAAGCGCTATCGGTCGCGCAGCCCCATAAGATAAAGGGCCTGCTCATTTGTATGCA (double strand) [PSPPH_4247 promoter]”, the binding entry in data set [2] is reported as “binds”.
As to “CATAGGGGTTGCCAAATGTGTCGAATGCCCCATAAGGTAGCGCTGTCTCATGGAAGGTGACAATGCTTTAT (double strand) [gntR negative control]”, the binding entry in data set [2] was “no binding”.
As for “TCTACGCCCCCTCAAAAAACCCTTTCGGGCGTCCCTGCAACCCAAAAAGCCCCACTGGGCAGTTACGGGTTGACTGTAAGAACTTGTTACGAGATATTAGTTAGCATACTACTAATATCCTCCCTAACAATATTGTTCCTAACTAAATTGTTCACGACTCAG (double strand) [PSPPH_3297 promoter]”, the binding entry in data set [3] was “binds”.
Take “GGTGCGGCATATCCCGTAGGCTCTGTCATTAAAAATGGCACAATTCTACTAGGCCGTCATTGCCTCCAACATGAATGATTTTCATGCAAAAGCCGCAGCACCACCAAAACCGTTCCGGTTTGCTATCATCCCGTTCTTTAAAGTA (double strand) [PSPPH_2621 promoter]”: the binding result in data set [2] is “binds”.
